Assay results from US20110118131A1 (published 2011).
Where a chain is given by its changes, count along the chain named. Names may count otherwise.

B1: XPA23 Fab, heavy chain S105N (Fab, V domains shown)
VH: EVQLLESGGGLVQPGGSLRLSCAASGFTFSKYFMFWVRQAPGKGLEWVSVISPSGGMTRYADSVKGRFTISRDNSKNTLYLQMNSLRAEDTAVYYCARVGYGGNNDYWGQGTLVTVSS
VL: DIQMTQSPSSVSASVGDRLTIICRASQDINRWLAWYQQTPGNAPKLLIHSATSLQSGVPSRFSGSGSGTDFTLTINSLQPEDFATYYCQQADSFPLTFGGGTKVEIK
B2: XPA23 Fab, heavy chain T58Y (Fab, V domains shown)
VH: B1 VH with T58Y, N105S
VL: B1 VL
B3: XPA23 Fab, heavy chain V50K (Fab, V domains shown)
VH: B1 VH with V50K, N105S
VL: B1 VL
B4: XPA23 Fab, heavy chain Y32S (Fab, V domains shown)
VH: B1 VH with Y32S, N105S
VL: B1 VL
B5: XPA23 Fab, heavy chain T58R (Fab, V domains shown)
VH: B1 VH with T58R, N105S
VL: B1 VL
B6: XPA23 Fab, heavy chain V50Q (Fab, V domains shown)
VH: B1 VH with V50Q, N105S
VL: B1 VL
B7: XPA23 Fab, heavy chain S105R (Fab, V domains shown)
VH: B1 VH with N105R
VL: B1 VL
B8: XPA23 Fab, heavy chain T58W (Fab, V domains shown)
VH: B1 VH with T58W, N105S
VL: B1 VL
B9: XPA23 Fab, heavy chain V99Q (Fab, V domains shown)
VH: B1 VH with V99Q, N105S
VL: B1 VL
B10: XPA23 Fab, heavy chain V50S (Fab, V domains shown)
VH: B1 VH with V50S, N105S
VL: B1 VL
B11: XPA23 Fab, heavy chain V99S (Fab, V domains shown)
VH: B1 VH with V99S, N105S
VL: B1 VL
B12: XPA23 Fab, heavy chain T58E (Fab, V domains shown)
VH: B1 VH with T58E, N105S
VL: B1 VL
B13: XPA23 Fab, heavy chain V50D (Fab, V domains shown)
VH: B1 VH with V50D, N105S
VL: B1 VL
B14: XPA23 Fab, heavy chain Y32N (Fab, V domains shown)
VH: B1 VH with Y32N, N105S
VL: B1 VL
B15: XPA23 Fab, heavy chain V50W (Fab, V domains shown)
VH: B1 VH with V50W, N105S
VL: B1 VL
B16: XPA23 Fab, heavy chain T58F (Fab, V domains shown)
VH: B1 VH with T58F, N105S
VL: B1 VL
B17: XPA23 Fab, heavy chain Y32Q (Fab, V domains shown)
VH: B1 VH with Y32Q, N105S
VL: B1 VL
B18: XPA23 Fab, heavy chain V50E (Fab, V domains shown)
VH: B1 VH with V50E, N105S
VL: B1 VL
B19: XPA23 Fab, heavy chain V99N (Fab, V domains shown)
VH: B1 VH with V99N, N105S
VL: B1 VL
B20: XPA23 Fab, heavy chain T28W (Fab, V domains shown)
VH: B1 VH with T28W, N105S
VL: B1 VL
B21: XPA23 Fab, heavy chain V50Y (Fab, V domains shown)
VH: B1 VH with V50Y, N105S
VL: B1 VL
B22: XPA23 Fab, heavy chain Y32D (Fab, V domains shown)
VH: B1 VH with Y32D, N105S
VL: B1 VL
B23: XPA23 Fab, heavy chain Y32H (Fab, V domains shown)
VH: B1 VH with Y32H, N105S
VL: B1 VL
B24: XPA23 Fab, heavy chain V50R (Fab, V domains shown)
VH: B1 VH with V50R, N105S
VL: B1 VL
B25: XPA23 Fab, heavy chain T28E (Fab, V domains shown)
VH: B1 VH with T28E, N105S
VL: B1 VL
B26: XPA23 Fab, heavy chain S105W (Fab, V domains shown)
VH: B1 VH with N105W
VL: B1 VL
B27: XPA23 Fab, heavy chain T28H (Fab, V domains shown)
VH: B1 VH with T28H, N105S
VL: B1 VL
B28: XPA23 Fab, heavy chain S105Q (Fab, V domains shown)
VH: B1 VH with N105Q
VL: B1 VL
B29: XPA23 Fab, heavy chain T58Q (Fab, V domains shown)
VH: B1 VH with T58Q, N105S
VL: B1 VL
B30: XPA23 Fab, heavy chain T28Q (Fab, V domains shown)
VH: B1 VH with T28Q, N105S
VL: B1 VL
B31: XPA23 Fab, heavy chain S105Y (Fab, V domains shown)
VH: B1 VH with N105Y
VL: B1 VL
B32: XPA23 Fab, heavy chain Y32F (Fab, V domains shown)
VH: B1 VH with Y32F, N105S
VL: B1 VL
B33: XPA23 Fab, heavy chain T28R (Fab, V domains shown)
VH: B1 VH with T28R, N105S
VL: B1 VL
B34: XPA23 Fab, heavy chain T58N (Fab, V domains shown)
VH: B1 VH with T58N, N105S
VL: B1 VL
B35: XPA23 Fab, heavy chain T58H (Fab, V domains shown)
VH: B1 VH with T58H, N105S
VL: B1 VL
B36: XPA23 Fab, heavy chain T28G (Fab, V domains shown)
VH: B1 VH with T28G, N105S
VL: B1 VL
B37: XPA23 Fab, heavy chain T58K (Fab, V domains shown)
VH: B1 VH with T58K, N105S
VL: B1 VL
B38: XPA23 Fab, heavy chain V99F (Fab, V domains shown)
VH: B1 VH with V99F, N105S
VL: B1 VL
B39: XPA23 Fab, heavy chain T28K (Fab, V domains shown)
VH: B1 VH with T28K, N105S
VL: B1 VL
B40: XPA23 Fab, heavy chain V50H (Fab, V domains shown)
VH: B1 VH with V50H, N105S
VL: B1 VL
B41: XPA23 Fab, heavy chain T58S (Fab, V domains shown)
VH: B1 VH with T58S, N105S
VL: B1 VL
B42: XPA23 Fab, heavy chain V50F (Fab, V domains shown)
VH: B1 VH with V50F, N105S
VL: B1 VL
B43: XPA23 Fab, heavy chain T58D (Fab, V domains shown)
VH: B1 VH with T58D, N105S
VL: B1 VL
B44: XPA23 Fab, heavy chain V99K (Fab, V domains shown)
VH: B1 VH with V99K, N105S
VL: B1 VL
B45: XPA23 Fab, heavy chain V99E (Fab, V domains shown)
VH: B1 VH with V99E, N105S
VL: B1 VL
B46: XPA23 Fab, heavy chain Y32E (Fab, V domains shown)
VH: B1 VH with Y32E, N105S
VL: B1 VL

Target: T1, IL-1beta (UniProt P01584 117-269)
T1 construct: also called IL-1β
Test: Biacore

| Binder | fold difference in affinity vs parental [fold] | binding result |
| --- | --- | --- |
| B1 | 0.85 |  |
| B2 | 1.01 |  |
| B3 |  | no binding |
| B4 | 1.33 |  |
| B5 | 1.14 |  |
| B6 |  | no binding |
| B7 |  | no binding |
| B8 | 0.93 |  |
| B9 |  | no binding |
| B10 |  | no binding |
| B11 |  | no binding |
| B12 |  | no binding |
| B13 |  | no binding |
| B14 | 0.04 |  |
| B15 |  | no binding |
| B16 | 1.04 |  |
| B17 |  | no binding |
| B18 |  | no binding |
| B19 |  | no binding |
| B20 |  | no binding |
| B21 |  | no binding |
| B22 | 0.68 |  |
| B23 | 0.62 |  |

| Binder | fold difference in affinity vs parental [fold] | binding result |
| --- | --- | --- |
| B24 |  | no binding |
| B25 |  | no binding |
| B26 |  | no binding |
| B27 |  | no binding |
| B28 | 0.98 |  |
| B29 |  | no binding |
| B30 |  | no binding |
| B31 |  | no binding |
| B32 | 0.75 |  |
| B33 |  | no binding |
| B34 | 0.9 |  |
| B35 | 0.98 |  |
| B36 |  | no binding |
| B37 |  | no binding |
| B38 | 0.03 |  |
| B39 |  | no binding |
| B40 |  | no binding |
| B41 | 0.82 |  |
| B42 |  | no binding |
| B43 | 0.12 |  |
| B44 |  | no binding |
| B45 |  | no binding |
| B46 | 0.12 |  |
